Experimental findings from patent US20160138094, “Direct, Programmable Detection of Epigenetic DNA Cytosine Modifications using TAL Effectors” (UNIVERSITÄt KONSTANZ, published 2016) are described below.

The target of series [1] is T1, TALE_97 (HD at repeat 5 opposite C6) (Xanthomonas axonopodis pv. citri …, UniProt B2SU53). Description: EMSA; Tris, NaCl, MgCl2, salmon sperm DNA, room temperature. The following applies: tags: N-terminal thioredoxin and S-tag, C-terminal His6; label: 5'-32P on reverse strand. The source says:
Oligonucleotides 97_C2/5/6/11/12/14 mC_rev (SEQ ID NO: 5) and 97_T3/4/8/9/10/16 mC_rev (SEQ ID NO: 8) were 5′-³²P-end labeled using γ-³²P-ATP and T4 polynucleotide kinase (Fermentas) and purified using a G-25 gel filtration column (GE Healthcare). Oligonucleotides were hybridized pairwise (97/97_C2/5/6/11/12/14 mC_rev (SEQ ID NO: 3/SEQ ID NO: 5); 97_C2/5/6/11/12/14 mC/97_C2/5/6/11/12/14 mC_rev (SEQ ID NO: 4/SEQ ID NO: 5); 97_T3/4/8/9/10/16 C/97_T3/4/8/9/10/16 mC_rev (SEQ ID NO: 6/SEQ ID NO: 8); 97_T3/4/8/9/10/16 mC/97_T3/4/8/9/10/16 mC_rev (SEQ ID NO: 7/SEQ ID NO: 8)) at a concentration of 12.5 nM, respectively, by incubating at 95° C. for 5 min and subsequently at room temperature for 30 min in Hybridization buffer (40 mM Tris-HCl (pH=8.0), 100 mM NaCl, 10 mM MgCl₂, 100 ng/μl salmon sperm DNA (Ambion), 0.2 mg/ml BSA, 10% glycerol). For TALE-binding, to 6 μL of the hybridized DNA duplexes, 6 μL of TALE storage buffer (20 mM Tris-HCl pH=7.5, 200 mM NaCl, 10% Glycerol, 1 mM DTT) with varying concentrations of TALE proteins were added and mixtures were incubated at room temperature for 30 min. Mixtures were loaded onto an analytical, non-denaturing PAGE-gel (0.5 mm, 50 cm length) that was run in 0.25×TB buffer at 12 W and room temperature. Gel was dried and data recorded on a phosphorimager.

Series [2] deals with T1, TALE_97 (HD at repeat 5 opposite C6). Briefly: inhibition; inhibition of Klenow exo- primer extension, MgCl2, room temperature. The following applies: tags: N-terminal thioredoxin and S-tag, C-terminal His6; label: 5'-32P on primer; 5' overhang template with primer duplex at template 3' end. On the procedure:
Templates as shown in FIG. 2 (SEQ ID NOs: 9 to 14) and primer p97_rev (SEQ ID NO: 15; 5′-³²P-end labeled as above) were diluted from 5× stocks (500 nM and 166.5 nM, respectively) into 6 μL Hybridization buffer (40 mM Tris-HCl (pH 8.0), 100 mM NaCl, 10 mM MgCl₂, 0.2 mg/ml BSA, 10% glycerol) to final concentrations of 100 nM and 33.3 nM and hybridized by incubating at 95° C. for 5 min and subsequently at room temperature for 30 min. TALE proteins with various RVDs at position 5 were added in 6 μL TALE storage buffer (200 mM NaCl, 20 mM Tris-HCl (pH 7.5), 1 mM DTT, 10% glycerol) at varying concentrations and mixtures were incubated at room temperature for 30 min. 12 μL of a mixture of 25 mU Klenow Fragment of E. coli DNA polymerase I (3′-5′-exo⁻, New England Biolabs) and 200 μM of each dNTP in Binding buffer (30 mM Tris-HCl (pH 8.0), 150 mM NaCl, 5 mM MgCl₂, 0.1 mg/ml BSA, 0.5 mM DTT, 7.5% glycerol) were added, resulting in final concentrations of 8.325 nM and 25 nM for primer and template, respectively. These mixtures were incubated at room temperature for additional 15 min. 12 μL of PAGE loading buffer (80% formamide, 2 mM EDTA) were added, the mixtures were incubated at 95° C. for 5 min and cooled to 4° C. […] Gel was dried and data recorded on a phosphorimager. […]

B1: 97 / 97_C2/5/6/11/12/14mC_rev duplex (dsDNA)
DNA 1: AGACGGCATACGATCTTCCGTTTCCACATCCACCACATCCCAACAGAGCAGCGGGAGCAGCAGTAAAGATCGGAAGAGC
DNA 2: GCTCTTCCGATCTTTACTGCTGCTCCCGCTGCTCTGTTGGGATGTGGTGGATGTGGAAACGGAAGATCGTATGCCGTCT
For B1, the binding result in series [1] is listed as “binds”.

B2: t97 template / p97_rev primer (dsDNA)
DNA 1: TGGATTCCCACTCTTCAGCCCCAGCGTTACAGCATCTTCAGTGGCTTCTTCCACCGTGAGCTCTTCCGTTTCCACATCC
DNA 2: GGATGTGGAAACGGAAGA
The term IC50 denotes the point on the concentration scale where inhibition reaches its midpoint. A low value points to greater potency. In series [2], B2 gave a 50% inhibitory concentration (IC50) of 106 nM.
